Data reported in patent EP4552657A1, “RADIOPHARMACEUTICAL COMPLEXES AND COMBINATIONS” (priority 2023, dated 2025).

Experiments:
[1] = biological target: T1, human c-Met (Homo sapiens, UniProt P08581); test: Flow cytometry, cell surface binding on MKN-45 and HT-55 cells; settings: compared to unconjugated Telisotuzumab
T1 construct: MKN-45 and HT-55 cells expressing human c-Met; endogenous in cells; host or cells: MKN-45, HT-55
Experimental: The in vitro binding properties of antibody-chelator conjugates were assessed in various relevant cell lines and compared to their corresponding unconjugated antibody. Briefly, samples were diluted in buffer (PBS/3% FBS) and added to relevant cell lines. After completion of the binding step (60 min at 4°C), the cells were washed and incubated with secondary antibody conjugated with phycoerythrin to detect antibodies containing a human IgG Fc region. After 60 min at 4°C, the cells were washed, and fluorescence on the cells was determined by flow cytometry using Guava EasyCyte 8HT (Luminex).
Cell surface binding of Telisotuzumab-macropa was compared to unconjugated Telisotuzumab and investigated by flow cytometry using MKN-45 and HT-55 cells expressing human c-Met (Figure 37).

[2] = biological target: GUCY2C (Homo sapiens, UniProt P25092); test: Immunoreactive fraction (IRF), binding to GUCY2C-coated beads
Experimental: Shortly after completion of the radiolabeling, the binding was assessed by measuring the fraction of radiolabeled antibody-chelator conjugate bound to relevant antigen coated magnetic beads (Thermo Fisher Scientific). In short, beads were placed in 2 mL Eppendorf tubes in 90 µL buffer (PBS/0.1% Tween 20/1% BSA). The radiolabeled compounds were diluted to 5 Bq/µL in buffer and 50 Bq were added to each bead-containing tube. The binding lasted for 60 min while shaking at 750 rpm at room temperature. After completion of the binding step, magnet (DynaMag-2) was used to separate the beads from […] supernatant. The radio activities in the supernatant and in the beads of each sample were measured using a high purity Germanium detector (Ortec). […] Total binding was defined as [(activity in beads […])/ (total activity)] × 100.
After completion of the radiolabeling, the binding Ac225-macropa-Indusatumab to GUCY2C-coated M270-carboxy Dynabeads was determined by IRF (as describe above).

[3] = tested on: CHO cells stably expressing GUCY2C; settings: 20 kBq/µg; 6 days; vs isotype control
Experimental: In vitro cytotoxicity of Ac-225-ACC was determined in cell lines expressing different levels of relevant target receptors. Cells were seeded at an appropriate cell density in relevant cell media. One day after seeding, the radiolabeled compounds at the specific activity of 2-20 kBq/µg and radioactive concentration of 50-100 kBq/ml were titrated in parallel with a radiolabeled isotype control. Cells were incubated for 5-6 days. Cell viability was determined by cell counting using Hoechst and PI staining and analyzed on Operetta CLS High Content Analysis System (Perkin Elmer) or by ATP measurements using CellTiterGlo (Promega).
The cells were seeded at an appropriate cell density in MEM Alpha + 10% FBS + 1x Glutamax + 0.5 mg/ml G418. […] Cells were treated for 6 days and subsequentially cell viability was determined using CellTiterGlo (Promega).

T1 sequence (P08581 25-1390): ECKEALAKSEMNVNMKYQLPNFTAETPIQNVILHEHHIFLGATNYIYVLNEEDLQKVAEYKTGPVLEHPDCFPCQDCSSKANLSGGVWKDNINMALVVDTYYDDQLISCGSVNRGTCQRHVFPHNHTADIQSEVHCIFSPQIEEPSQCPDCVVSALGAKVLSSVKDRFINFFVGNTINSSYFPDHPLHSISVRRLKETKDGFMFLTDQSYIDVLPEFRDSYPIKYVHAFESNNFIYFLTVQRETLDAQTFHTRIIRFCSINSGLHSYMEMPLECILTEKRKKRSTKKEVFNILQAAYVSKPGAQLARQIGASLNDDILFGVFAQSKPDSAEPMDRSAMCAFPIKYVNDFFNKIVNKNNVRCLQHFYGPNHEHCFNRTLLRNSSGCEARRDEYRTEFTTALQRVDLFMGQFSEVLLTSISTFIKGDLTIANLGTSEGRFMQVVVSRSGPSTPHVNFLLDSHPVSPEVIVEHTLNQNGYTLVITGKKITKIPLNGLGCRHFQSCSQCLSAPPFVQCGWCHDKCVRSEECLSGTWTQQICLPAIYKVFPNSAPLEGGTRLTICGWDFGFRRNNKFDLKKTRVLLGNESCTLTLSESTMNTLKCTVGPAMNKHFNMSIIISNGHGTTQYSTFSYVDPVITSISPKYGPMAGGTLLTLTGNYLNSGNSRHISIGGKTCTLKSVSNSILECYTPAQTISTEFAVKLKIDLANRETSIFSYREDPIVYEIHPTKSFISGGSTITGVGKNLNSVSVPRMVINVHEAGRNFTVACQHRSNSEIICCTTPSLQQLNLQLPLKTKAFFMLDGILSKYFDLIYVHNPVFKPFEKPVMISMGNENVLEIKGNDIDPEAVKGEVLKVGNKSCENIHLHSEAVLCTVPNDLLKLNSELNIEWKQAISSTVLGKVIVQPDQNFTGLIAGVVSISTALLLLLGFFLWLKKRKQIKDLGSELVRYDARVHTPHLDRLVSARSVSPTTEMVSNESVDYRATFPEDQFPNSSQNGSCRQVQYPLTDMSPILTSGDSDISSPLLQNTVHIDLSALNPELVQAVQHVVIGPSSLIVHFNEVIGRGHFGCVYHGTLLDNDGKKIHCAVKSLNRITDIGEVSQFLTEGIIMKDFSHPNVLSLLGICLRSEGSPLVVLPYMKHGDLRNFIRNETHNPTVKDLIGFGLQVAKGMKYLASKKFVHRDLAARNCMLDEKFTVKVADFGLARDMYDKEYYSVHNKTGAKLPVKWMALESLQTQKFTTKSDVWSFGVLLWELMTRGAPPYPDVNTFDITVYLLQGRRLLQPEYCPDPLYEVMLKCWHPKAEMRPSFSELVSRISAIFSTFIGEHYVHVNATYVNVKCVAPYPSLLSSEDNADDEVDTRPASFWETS

For Telisotuzumab-macropa, the EC50 [1] was “comparable EC50 in both cell lines as unconjugated Telisotuzumab”.

With “Ac-225-macropa-Indusatumab: Ac-225 macropa complex bound to the anti-GUCY2C monoclonal antibody Indusatumab” the “amount of GUCY2C-coated beads at which maximal binding was achieved” value [2] was 7.5 µg and the cytotoxicity [3] was “strong and specific cytotoxicity”.
